We go through 3 substances from paper doi:10.1101/2021.03.19.436134.

Several values for one entry are separate records, joined by “and”; a condition that tells them apart may be missing. Equal values may be shown once.

The target of test [1] is biotinylated PfArlI, ArlI motor ATPase of Pyrococcus furiosus with AviTag, unlabelled, immobilised (Pyrococcus furiosus). Put plainly: single-molecule TIRF photobleaching step counting.
The target of test [2] is PfArlH^S109C, single cysteine mutant of Pyrococcus furiosus ArlH labelled with Atto550 and Atto647N, non-phosphorylated (Pyrococcus furiosus). Put plainly: single-molecule TIRF photobleaching step counting.
Test [3] deals with SaArlH, ArlH of Sulfolobus acidocaldarius, His-tagged, non-phosphorylated (Sulfolobus acidocaldarius). The test can be described thus: BLI.
The target in test [4] is labelled, biotinylated PfArlI^C290S/T411C (Pyrococcus furiosus). The test can be described thus: single-molecule TIRF photobleaching step counting.

With “PfArlH^S109C, single cysteine mutant of Pyrococcus furiosus ArlH labelled with Atto550 and Atto647N, non-phosphorylated (natural protein)”, the stoichiometry N is 1 in test [1]; 6 and 3 in test [2].

Turning to “SaArlI, ArlI motor ATPase of Sulfolobus acidocaldarius (Strep-SaArlI) (enzyme)”, the Kd in test [3] was determined as 638 nM.

On to “labelled, biotinylated PfArlI^C290S/T411C (enzyme)”, for which the stoichiometry N in test [4] is 3 and 2 and 6.
